Measurements: US20190161539A1 (published 2019)
Each block holds one binder with its values, some of them ahead of it.

Assays:
[1] = target: T1, β-amyloid peptide (1-42) conjugated to BSA (C-terminal Cys43 coupled to maleimide-activated bovine serum albumin); assay: competition ELISA on coated Aβ1-42-BSA against biotinylated Mu266, first set of three experiments
T1 construct: Coated on the ELISA plate; BSA carrier not written as a chain; also called Aβ1-42-BSA conjugate; Aβ1-42-Cys-BSA conjugate
Procedure: (§1) The Aβ₁₋₄₂-BSA conjugate was prepared by dissolving 7.5 mg of Aβ₁₋₄₂-Cys₄₃ (C-terminal cysteine Aβ₁₋₄₂, AnaSpec) in 500 μL of dimethylsulfoxide, and then immediately adding 1,500 μL of distilled water. Two (2) milligrams of maleimide-activated bovine serum albumin (Pierce) was dissolved in 200 μL of distilled water. The two solutions were combined, thoroughly mixed, and allowed to stand at room temperature for two (2) hours. A gel chromatography column was used to separate unreacted peptide from Aβ₁₋₄₂-Cys-BSA conjugate.
(§2) After washing the wells with phosphate buffered saline (PBS) containing 0.1% Tween 20 (Washing Buffer) using an ELISA plate washer, the wells were blocked by adding 300 μL of SuperBlock reagent (Pierce) per well. After 30 minutes of blocking, the wells were washed Washing Buffer and excess liquid was removed.
(§3) As a background control, 100 μl of ELISA Buffer was added. The ELISA plate was incubated at room temperature for 90 min. After washing the wells with Washing Buffer, 100 μl of 1 μg/ml HRP-conjugated streptavidin (Cat #21124, Pierce) was added to each well. […] Absorbance was read at 415 nm. The absorbances were plotted against the log of the competitor concentration, curves were fit to the data points (using Prism) and the IC50 was determined for each antibody using methods well-known in the art.

Aβ1-42 = assay: method only given as 'essentially as described above' (KD=Kd/Ka)
[2] = target: T1, β-amyloid peptide (1-42) conjugated to …; assay: competition ELISA on coated Aβ1-42-BSA against biotinylated Mu266, second set of three experiments
Procedure: as §1, §2, §3

[3] = target: T2, aggregate tau fibrils purified from AD brain homogenates (human, UniProt P10636-8 2-441, limits assumed); assay: ELISA on coated tau fibrils purified from AD brain
T2 construct: Brain-derived aggregates; also called Purified AD Tau Fibrils; purified tau fibrils
T2 sequence (P10636 other isoform, or with tags, fused parts or gaps limits assumed): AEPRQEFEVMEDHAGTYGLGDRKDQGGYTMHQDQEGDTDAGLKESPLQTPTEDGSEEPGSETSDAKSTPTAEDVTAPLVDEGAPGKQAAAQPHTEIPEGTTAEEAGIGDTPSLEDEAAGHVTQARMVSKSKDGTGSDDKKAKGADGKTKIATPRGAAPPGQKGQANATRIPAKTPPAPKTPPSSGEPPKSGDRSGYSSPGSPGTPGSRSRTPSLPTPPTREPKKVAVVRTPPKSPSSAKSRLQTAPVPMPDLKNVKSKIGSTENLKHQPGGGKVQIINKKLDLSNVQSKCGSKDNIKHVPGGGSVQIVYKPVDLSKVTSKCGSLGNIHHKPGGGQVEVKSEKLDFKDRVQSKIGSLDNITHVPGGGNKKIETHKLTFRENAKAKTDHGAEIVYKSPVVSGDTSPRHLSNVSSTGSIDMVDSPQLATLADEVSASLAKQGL

human tau aggregates = target: T3, human tau aggregates (human, UniProt P10636 2-758); assay: SPR (BIACORE 2000), antibody captured on protein A, 1:1 fit
T3 construct: also called fibril tau; tau fibril aggregate
T3 sequence (P10636 other isoform, or with tags, fused parts or gaps limits assumed): as above
Procedure: (§4) Except as noted, all reagents and materials are from BIACORE® AB (Upsala, Sweden). A CM5 chip containing immobilized protein A (generated using standard NHS-EDC amine coupling) on all four flow cells (FC) is used to employ a capture methodology. Antibody samples are prepared at 0.5 μg/mL by dilution into running buffer. Monomeric tau and fibril tau are prepared to concentrations of 2000, 1000, 500, 250, 125, 62.5, 31.25, 15.63, 7.82, 3.91, 1.95, and 0 (blank) nM by dilution into running buffer. Each analysis cycle consists of: (1) capturing antibody samples on separate flow cells (FC2, FC3, and FC4); (2) injection of 250 μL (300 sec) of either monomeric tau or tau fibril aggregate over respective FC at a rate of 50 μL/min; (3) return to buffer flow for 20 mins. to monitor dissociation phase; (4) regeneration of chip surfaces with 25 μL (30 sec) injection of glycine, pH1.5; (5) equilibration of chip surfaces with a 50 μL (60 sec) injection of HBS-EP+.
Data of binding to tau aggregate is processed using standard double-referencing and fit to a 1:1 binding model using Biacore 2000 Evaluation software, version 4.1, to determine the association rate (kₒₙ, M⁻¹s⁻¹ units), dissociation rate (koff, s⁻¹ units), and Rₘₐₓ (RU units). The equilibrium dissociation constant (KD) was calculated from the relationship KD=koff/kₒₙ, and is in molar units. […] Therefore, KD for binding to monomeric tau is obtained by using a steady state binding fit model from plotting the concentration of antigen versus the response unit.

[4] = target: T4, human monomeric (native or non-aggregate) tau (human, UniProt P10636 2-758); assay: SPR (BIACORE 2000), antibody captured on protein A, steady state fit
T4 construct: also called Monomeric Tau; monomeric tau
T4 sequence (P10636 other isoform, or with tags, fused parts or gaps limits assumed): as above
Procedure: as §4
Data of binding to tau aggregate is processed using standard double-referencing and fit to a 1:1 binding model using Biacore 2000 Evaluation software, version 4.1, to determine the association rate (kₒₙ, M⁻¹s⁻¹ units), dissociation rate (koff, s⁻¹ units), and Rₘₐₓ (RU units). The equilibrium dissociation constant (KD) was calculated from the relationship KD=koff/kₒₙ, and is in molar units. […]

IC50 [1]: 7.5 µg/mL | Kd (Aβ1-42): 4 pM | IC50 [2]: 4 µg/mL
B1: humanized 266 antibody (Hu266) (antibody, human IgG1, kappa, V domains shown)
VH: EVQLVESGGGLVQPGGSLRLSCAASGFTFSRYSMSWVRQAPGKGLELVAQINSVGNSTYYPDTVKGRFTISRDNAKNTLYLQMNSLRAEDTAVYYCASGDYWGQGTLVTVSS
VL: DVVMTQSPLSLPVTLGQPASISCRSSQSLIYSDGNAYLHWFLQKPGQSPRLLIYKVSNRFSGVPDRFSGSGSGTDFTLKISRVEAEDVGVYYCSQSTHVPWTFGQGTKVEIKR
notes: Mature antibody expressed from pVk-Hu266 and pVg1-Hu266 in Sp2/0 cells; also called exemplified anti-Aβ antibody

EC50 [3]: 6.8 pM | Kd (human tau aggregates): < 220 pM | koff (human tau aggregates): < 1e-05 s⁻¹ | kon (human tau aggregates): 45900 M⁻¹ s⁻¹ | Kd [4]: 235000 pM
B2: Exemplified anti-Tau antibody (having both HCs of SEQ ID NO.68 and both LCs of SEQ ID NO.67) (antibody, human IgG4 S228P, kappa, F234A L235A, V domains shown)
VH: EVQLVQSGAEVKKPGESLKISCKGSGYTFSNYWIEWVRQMPGKGLEWMGEILPGSDSIKYEKNFKGQVTISADKSISTAYLQWSSLKASDTAMYYCARRGNYVDDWGQGTLVTVSS
VL: EIVLTQSPGTLSLSPGERATLSCRSSQSLVHSNQNTYLHWYQQKPGQAPRLLIYKVDNRFSGIPDRFSGSGSGTDFTLTISRLEPEDFAVYYCSQSTLVPLTFGGGTKVEIKR
notes: also called Exemplified anti-Tau mAb; exemplified tau monoclonal antibody
